According to PMC8171356 (Nature structural & molecular biology, 2017):
Changes are numbered by the printed parent chain. Names may count otherwise. Ends that are not written are not given here. * marks the point of attachment. βGlcNAc = CC(=O)N[C@@H]1[C@@H](O)[C@H](O)[C@@H](CO)O[C@H]1*

B1: OGA_(cryst) (D175N) (domain or fragment, human)
chain: FLCGVVEGFYGRPWVMEQRKELFRRLQKWELNTYLYAPKDDYKHRMFWREMYSVEEAEQLMTLISAAREYEIEFIYAISPGLDITFSNPKEVSTLKRKLDQVSQFGCRSFALLFDNIDHNMCAADKEVFSSFAHAQVSITNEIYQYLGEPETFLFCPTEYCGTFCYPNVSQSPYLRTVGEKLLPGIEVLWTGPKVVSKEIPVESIEEVSKIIKRAPVIWDNIHANDYDQKRLFLGPYKGRSTELIPRLKGVLTNPNCEFEANYVAIHTLATWYKSNMNGVRKDVVMTDSEDSTVSIQIKLENEGSDEDIETDVLYSPQMALKLALTEWLQEFGVPHQYSSRGGGGSGGGGSGGGGSVTLEDLQLLADLFYLPYEHGPKGAQMLREFQWLRANSSVVSVNCKGKDSEKIEEWRSRAAKFEEMCGLVMGMFTRLSNCANRTILYDMYSYVWDIKSIMSMVKSFVQWLGCRSHSSAQFLIGDQEPWAFRGGLAGEFQRLLPIDGANDLFFQ
B2: OGA_(cryst) (truncated hOGA, residues 60-704 with residues 401-552 replaced by a 15-residue glycine-serine linker) (domain or fragment, human)
chain: B1 chain with N116D

Legend:
[1] = in vivo; cited from earlier work
OGA_(cryst) (D175N) = molecular target: B1; experiment: crystal structure
[2] = molecular target: T1, full-length human O-GlcNAcase (hOGA) (human, UniProt O60502 1-916); experiment: glycopeptide competition assay
T1 sequence (looked up): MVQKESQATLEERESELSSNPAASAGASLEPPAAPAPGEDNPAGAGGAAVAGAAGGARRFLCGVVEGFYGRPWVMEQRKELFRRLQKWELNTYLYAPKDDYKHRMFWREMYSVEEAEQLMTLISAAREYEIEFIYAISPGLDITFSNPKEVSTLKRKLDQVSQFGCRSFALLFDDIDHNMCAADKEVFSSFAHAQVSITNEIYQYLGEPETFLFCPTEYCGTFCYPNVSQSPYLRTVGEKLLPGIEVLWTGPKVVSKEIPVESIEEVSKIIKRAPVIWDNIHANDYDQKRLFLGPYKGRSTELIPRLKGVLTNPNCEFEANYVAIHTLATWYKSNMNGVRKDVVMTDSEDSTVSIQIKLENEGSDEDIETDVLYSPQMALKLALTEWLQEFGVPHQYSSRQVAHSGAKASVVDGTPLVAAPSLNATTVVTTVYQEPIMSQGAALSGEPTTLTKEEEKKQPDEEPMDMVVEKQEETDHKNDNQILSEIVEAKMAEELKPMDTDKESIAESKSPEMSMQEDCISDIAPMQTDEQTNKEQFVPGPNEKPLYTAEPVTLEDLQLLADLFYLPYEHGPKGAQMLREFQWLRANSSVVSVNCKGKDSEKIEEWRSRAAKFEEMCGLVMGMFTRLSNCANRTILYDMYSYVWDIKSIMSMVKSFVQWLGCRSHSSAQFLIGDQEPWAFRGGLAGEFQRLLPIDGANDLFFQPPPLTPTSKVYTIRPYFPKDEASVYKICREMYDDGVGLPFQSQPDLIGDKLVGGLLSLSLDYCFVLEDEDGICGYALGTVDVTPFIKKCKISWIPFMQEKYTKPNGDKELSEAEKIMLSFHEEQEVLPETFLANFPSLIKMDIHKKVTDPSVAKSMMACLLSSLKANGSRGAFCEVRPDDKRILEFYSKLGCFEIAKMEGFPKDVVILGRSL

crystal structure = molecular target: the molecule itself; experiment: crystal structure
AUC = molecular target: the molecule itself; experiment: AUC

CCN=C1N[C@@H]2[C@@H](O)[C@H](O)[C@@H](CO)O[C@@H]2S1 [thiamet-G]
blood–brain barrier crossing [1]: can cross the blood–brain barrier

Ac-QLWVDS(βGlcNAc)TPPPG [O-GlcNAcylated p53 peptide Ac-QLWVDS(O-GlcNAc)TPPPG]
binding result (OGA_(cryst) (D175N)): binds
binding result [2]: binds

B1
binding result (crystal structure): binds

B2
stoichiometry N (AUC): 2
